The values below come from US20210070843A1.

Some results are limits rather than exact numbers.

Assay [1] has as its target recombinant H3N2 WN/05 HA trimer (hemagglutinin ectodomain of A/Wisconsin/67/2005) (influenza A virus A/Wisconsin/67/2005 (H3N2)). Nature of the assay: ELISA, coated HA. Background: ELISA stands for enzyme-linked immunosorbent assay.
Assay [2] concerns the target recombinant H5N1 VN/04 HA trimer (hemagglutinin ectodomain of A/Vietnam/1203/2004) (influenza A virus A/Vietnam/1203/2004 (H5N1)). Nature of the assay: ELISA, coated HA.
The target in assay [3] is recombinant H1N1 CA/09 HA trimer (hemagglutinin ectodomain of A/California/07/2009) (influenza A virus A/California/07/2009 (H1N1)). Nature of the assay: ELISA, coated HA.
Assay [4] deals with recombinant H7N9 AH/13 HA trimer (hemagglutinin ectodomain of A/Anhui/1-BALF_RG17/2013) (influenza A virus A/Anhui/1-BALF_RG17/2013 (H7N9)). Nature of the assay: ELISA, coated HA.
Assay [5] addresses full-length H1 A/California/07/2009 HA expressed on 293T cells (influenza A virus A/California/07/2009 (H1N1)). The assay can be described thus: flow cytometry, HA-expressing 293T. On the technique in general: In flow cytometry, cells or beads pass a laser one at a time.
For assay [6], the target named is cell surface-expressed H3N2 WN/05 HA trimer (influenza A virus A/Wisconsin/67/2005 (H3N2)). Nature of the assay: flow cytometry, HA-expressing 293T.
In assay [7] the target is full-length H5 A/Vietnam/1203/2004 HA expressed on 293T cells (influenza A virus A/Vietnam/1203/2004 (H5N1)). The assay can be described thus: flow cytometry, HA-expressing 293T.
In assay [8] the target is H7 A/Anhui/1-BALF_RG17/2013 HA on H7N9 AH/13 pseudo virus (influenza A virus A/Anhui/1-BALF_RG17/2013 (H7N9)). Nature of the assay: cell-based or functional assay.
Assay [9] has as its target full-length H1 A/California/07/2009 HA expressed on 293T cells (influenza A virus A/California/07/2009 (H1N1)). Nature of the assay: cell-based or functional assay.
The target of assay [10] is full-length H5 A/Vietnam/1203/2004 HA expressed on 293T cells (influenza A virus A/Vietnam/1203/2004 (H5N1)). The assay can be described thus: cell-based or functional assay.

As usually defined, the EC50 is the concentration giving half of the maximal effect. Regarding FI6V3 (antibody), the EC50 in assay [1] was determined as 0.0789 µg/mL; in [2], 0.00648 µg/mL; in [3] it was 0.0107 µg/mL; in [4], 0.314 µg/mL; in assay [5] it was 0.067 µg/mL; in [6], 0.065 µg/mL. Also, the max. MFI in assay [5] was found to be 10100 MFI; in [6], 16600 MFI; in assay [7], 13700 MFI. The IC50 of pseudo virus neutralization H7N9 AH/13 in assay [8] is 0.051 µg/mL. Also, the IC50 of pseudo virus neutralization H1N1 CA/09 in [9] stood at 0.0213 µg/mL. Besides, in [9], the IC50 of true virus neutralization H1N1 CA/09 came out at 9.21 µg/mL. In assay [10], this substance had an IC50 of pseudo virus neutralization H5N1 VN/04 of 0.013 µg/mL.
Turning to F10 (antibody), the values for the EC50 in assay [2], in assay [3] and in assay [5] were 0.021 µg/mL, 0.0121 µg/mL and 1.05 µg/mL, respectively. Further, the max. MFI stood at 9530 MFI in assay [5], 220 MFI in assay [6] and 10500 MFI in [7]. The substance further showed an IC50 of pseudo virus neutralization H7N9 AH/13 in assay [8] above 200 µg/mL. The substance also had an IC50 of pseudo virus neutralization H1N1 CA/09 in [9] of 0.0119 µg/mL. Further, the IC50 of true virus neutralization H1N1 CA/09 in [9] was determined as 1.26 µg/mL. In assay [10], the IC50 of pseudo virus neutralization H5N1 VN/04 was 0.012 µg/mL.
